Measurements published in the supplement of paper PMC11246515.
± gives the standard deviation of the averaged measurements.

Assay: total protein half-life in vivo (active degradation + dilution); higher = more stable protein
[1] = E. coli NCM3722 delta-clpP delta-lon delta-hslV, growth: N-lim chemostat, doubling time 6 h
[2] = E. coli NCM3722 delta-clpP, growth: N-lim chemostat, doubling time 6 h
[3] = E. coli NCM3722 delta-hslV, growth: N-lim chemostat, doubling time 6 h
[4] = E. coli NCM3722 delta-lon, growth: N-lim chemostat, doubling time 6 h
[5] = E. coli NCM3722 delta-smpB, growth: N-lim chemostat, doubling time 6 h
[6] = wild type E. coli NCM3722, growth: C-lim chemostat, doubling time 3 h
[7] = wild type E. coli NCM3722, growth: C-lim chemostat, doubling time 6 h
[8] = wild type E. coli NCM3722, growth: C-lim chemostat, doubling time 12 h
[9] = wild type E. coli NCM3722, growth: N-lim chemostat, doubling time 6 h
[10] = wild type E. coli NCM3722, growth: N-lim chemostat, doubling time 12 h
[11] = wild type E. coli NCM3722, growth: P-lim chemostat, doubling time 6 h
[12] = wild type E. coli NCM3722, growth: P-lim chemostat, doubling time 12 h

MKRAVITGLGIVSSIGNNQQEVLASLREGRSGITFSQELKDSGMRSHVWGNVKLDTTGLIDRKVVRFMSDASIYAFLSMEQAIADAGLSPEAYQNNPRVGLIAGSGGGSPRFQVFGADAMRGPRGLKAVGPYVVTKAMASGVSACLATPFKIHGVNYSISSACATSAHCIGNAVEQIQLGKQDIVFAGGGEELCWEMACEFDAMGALSTKYNDTPEKASRTYDAHRDGFVIAGGGGMVVVEELEHALARGAHIYAEIVGYGATSDGADMVAPSGEGAVRCMKMAMHGVDTPIDYLNSHGTSTPVGDVKELAAIREVFGDKSPAISATKAMTGHSLGAAGVQEAIYSLLMLEHGFIAPSINIEELDEQAAGLNIVTETTDRELTTVMSNSFGFGGTNATLVMRKLKD [P0A953]
total protein half-life in vivo [1]: 5.27 ± 0.45 h
total protein half-life in vivo [2]: 5.06 ± 0.069 h
total protein half-life in vivo [3]: 4.81 ± 0.16 h
total protein half-life in vivo [4]: 4.98 ± 0.26 h
total protein half-life in vivo [5]: 4.81 ± 0.049 h
total protein half-life in vivo [6]: 2.99 ± 0.039 h
total protein half-life in vivo [7]: 6.06 ± 0.36 h
total protein half-life in vivo [8]: 10.8 ± 0.81 h
total protein half-life in vivo [9]: 4.78 ± 0.11 h
total protein half-life in vivo [10]: 8.39 ± 0.45 h
total protein half-life in vivo [11]: 5.89 ± 0.25 h
total protein half-life in vivo [12]: 12.3 ± 0.21 h

MKRKLFWICAVAMGMSAFPSFMTQATPATQPLINAEPAVAAQTEQNPQVGQVMPGVQGADAPVVAQNGPSRDVKLTFAQIAPPPGSMVLRGINPNGSIEFGMRSDEVVTKAMLNLEYTPSPSLLPVQSQLKVYLNDELMGVLPVTKEQLGKKTLAQMPINPLFISDFNRVRLEFVGHYQDVCEKPASTTLWLDVGRSSGLDLTYQTLNVKNDLSHFPVPFFDPSDNRTNTLPMVFAGAPDVGLQQASAIVASWFGSRSGWRGQNFPVLYNQLPDRNAIVFATNDKRPDFLRDHPAVKAPVIEMINHPQNPYVKLLVVFGRDDKDLLQAAKGIAQGNILFRGESVVVNEVKPLLPRKPYDAPNWVRTDRPVTFGELKTYEEQLQSSGLEPAAINVSLNLPPDLYLMRSTGIDMDINYRYTMPPVKDSSRMDISLNNQFLQSFNLSSKQEANRLLLRIPVLQGLLDGKTDVSIPALKLGATNQLRFDFEYMNPMPGGSVDNCITFQPVQNHVVIGDDSTIDFSKYYHFIPMPDLRAFANAGFPFSRMADLSQTITVMPKAPNEAQMETLLNTVGFIGAQTGFPAINLTVTDDGSTIQGKDADIMIIGGIPDKLKDDKQIDLLVQATESWVKTPMRQTPFPGIVPDESDRAAETRSTLTSSGAMAAVIGFQSPYNDQRSVIALLADSPRGYEMLNDAVNDSGKRATMFGSVAVIRESGINSLRVGDVYYVGHLPWFERVWYALANHPILLAVLAAISVILLAWVLWRLLRIISRRRLNPDNE
total protein half-life in vivo [1]: 6.42 ± 0.47 h
total protein half-life in vivo [2]: 7.04 ± 0.67 h
total protein half-life in vivo [3]: 6.15 ± 0.65 h
total protein half-life in vivo [4]: 6.28 ± 0.15 h
total protein half-life in vivo [5]: 5.904 ± 0.057 h
total protein half-life in vivo [6]: 3.17 ± 0.033 h
total protein half-life in vivo [7]: 6.1 ± 0.11 h
total protein half-life in vivo [8]: 10.7 ± 1.2 h
total protein half-life in vivo [9]: 5.8 ± 0.2 h
total protein half-life in vivo [10]: 11.4 ± 0.44 h
total protein half-life in vivo [11]: 6.3 ± 0.39 h
total protein half-life in vivo [12]: 11.8 ± 0.31 h

MKRKTLPLLALVATTLFLIACDDRSDDLKAISKFKDLTPPRFSDVVSHQDDVSEEWSQVDYLSGPTLQVLRTRQSPDGCEDGSYYYLVDMQEKTVQPLMNALCIADNIKLEYQEVTDPYTKEKYFEYAHDGKLMGQLLIPSNPDNQE
total protein half-life in vivo [7]: 1.71 h

MKRKVLLIPLIIFLAIAAALLWQLARNAEGDDPTNLESALIGKPVPKFRLESLDNPGQFYQADVLTQGKPVLLNVWATWCPTCRAEHQYLNQLSAQGIRVVGMNYKDDRQKAISWLKELGNPYALSLFDGDGMLGLDLGVYGAPETFLIDGNGIIRYRHAGDLNPRVWEEEIKPLWEKYSKEAAQ [P0AA86]
total protein half-life in vivo [1]: 6.39 ± 0.1 h
total protein half-life in vivo [5]: 6.09 ± 0.34 h
total protein half-life in vivo [6]: 3 ± 0.084 h
total protein half-life in vivo [7]: 6.112 ± 0.034 h
total protein half-life in vivo [8]: 13.3 ± 1.2 h
total protein half-life in vivo [9]: 6.16 ± 0.32 h
total protein half-life in vivo [11]: 5.3 h
total protein half-life in vivo [12]: 12.5 ± 1.7 h

MKRLHKRFLLATFCALFTATLQAADVTITVNGRVVAKPCTIQTKEANVNLGDLYTRNLQQPGSASGWHNITLSLTDCPVETSAVTAIVTGSTDNTGYYKNEGTAENIQIELRDDQDAALKNGDSKTVIVDEITRNAQFPLKARAITVNGNASQGTIEALINVIYTWQ
total protein half-life in vivo [5]: 5.55 h

MKRLQAFKFQLRPGGQQECEMRRFAGACRFVFNRALARQNENHEAGNKYIPYGKMASWLVEWKNATETQWLKDSPSQPLQQSLKDLERAYKNFFRKRAAFPRFKKRGQNDAFRYPQGVKLDQENSRIFLPKLGWMRYRNSRQVTGVVKNVTVSQSCGKWYISIQTESEVSTPVHPSASMVGLDAGVAKLATLSDGTVFEPVNSFQKNQKKLARLQRQLSRKVKFSNNWQKQKRKIQRLHSCIANIRRDYLHKVTTAVSKNHAMIVIEDLKVSNMSKSAAGTVSQPGRNVRAKSGLNRSILDQGWYEMRRQLAYKQLWRGGQVLAVPPAYTSQRCAYCGHTAKENRLSQSKFRCQVCGYTANADVNGARNILAAGHAVLACGEMVQSGRPLKQEPTEMIQATA
total protein half-life in vivo [1]: 5.63 h
total protein half-life in vivo [4]: 3.54 h
total protein half-life in vivo [7]: 6.1 ± 0.35 h
total protein half-life in vivo [8]: 10.6 h
total protein half-life in vivo [12]: > 16 h

MKRLRNKMTTEELAECLGVAKQTVNRWIREKGWKTEKFPGVKGGRARLILVDTQVCEFIQNTPAFHNTPMLMEAEERIAEYAPGARAPAYRQIINAIDNMTDIEQEKVAQFLSREGIRNFLARLDIDESA
total protein half-life in vivo [1]: 6.16 ± 0.29 h
total protein half-life in vivo [6]: 2.58 ± 0.081 h
total protein half-life in vivo [7]: 4.56 h
total protein half-life in vivo [8]: 7.65 ± 1 h
total protein half-life in vivo [10]: 4.62 h
total protein half-life in vivo [12]: 4.26 h

MKRMIALDGAQGEGGGQILRSALSLSMITGQPFTITSIRAGRAKPGLLRQHLTAVKAATEICGATVEGAELGSQRLLFRPGTVRGGDYRFAIGSAGSCTLVLQTVLPALWFADGPSRVEVSGGTDNPSAPPADFIRRVLEPLLAKIGIHQQTTLLRHGFYPAGGGVVATEVSPVASFNTLQLGERGNIVQMRGEVLLAGVPRHVAEREIATLAGSFSLHEQNIHNLPRDQGPGNTVSLEVESENITERFFVVGEKRVSAEVVAAQLVKEVKRYLASTAAVGEYLADQLVLPMALAGAGEFTVAHPSCHLLTNIAVVERFLPVRFSLIETDGVTRVSIE
total protein half-life in vivo [1]: 5.12 ± 0.25 h
total protein half-life in vivo [2]: 4.65 h
total protein half-life in vivo [3]: 5.05 h
total protein half-life in vivo [4]: 4.457 ± 0.014 h
total protein half-life in vivo [5]: 4.17 ± 0.09 h
total protein half-life in vivo [6]: 2.59 h
total protein half-life in vivo [7]: 5.6 ± 0.12 h
total protein half-life in vivo [8]: 11.3 ± 1.7 h
total protein half-life in vivo [9]: 4.52 ± 0.4 h
total protein half-life in vivo [11]: 5.28 ± 0.24 h
total protein half-life in vivo [12]: 10.9 h

MKRNAKTIIAGMIALAISHTAMADDIKVAVVGAMSGPIAQWGDMEFNGARQAIKDINAKGGIKGDKLVGVEYDDACDPKQAVAVANKIVNDGIKYVIGHLCSSSTQPASDIYEDEGILMISPGATNPELTQRGYQHIMRTAGLDSSQGPTAAKYILETVKPQRIAIIHDKQQYGEGLARSVQDGLKAANANVVFFDGITAGEKDFSALIARLKKENIDFVYYGGYYPEMGQMLRQARSVGLKTQFMGPEGVGNASLSNIAGDAAEGMLVTMPKRYDQDPANQGIVDALKADKKDPSGPYVWITYAAVQSLATALERTGSDEPLALVKDLKANGANTVIGPLNWDEKGDLKGFDFGVFQWHADGSSTAAK
total protein half-life in vivo [1]: 5.85 ± 0.11 h
total protein half-life in vivo [2]: 6.16 ± 0.79 h
total protein half-life in vivo [3]: 6.48 ± 0.55 h
total protein half-life in vivo [4]: 5.84 ± 0.097 h
total protein half-life in vivo [5]: 6.01 ± 0.47 h
total protein half-life in vivo [6]: 3.077 ± 0.0084 h
total protein half-life in vivo [7]: 6.134 ± 0.039 h
total protein half-life in vivo [8]: 11.9 ± 0.26 h
total protein half-life in vivo [9]: 5.87 ± 0.27 h
total protein half-life in vivo [10]: 12.2 ± 0.64 h
total protein half-life in vivo [11]: 5.65 ± 0.13 h
total protein half-life in vivo [12]: 14.3 ± 1.1 h
